{"source": "paper PMC10786891", "about": "“Massively parallel profiling of RNA-targeting CRISPR-Cas13d”"}
{"target": "T1, EsCas13d, nuclease-dead (Eubacterium siraeum, UniProt B0MS50, R295A;H300A;R849A;H854A)", "T1 sequence": "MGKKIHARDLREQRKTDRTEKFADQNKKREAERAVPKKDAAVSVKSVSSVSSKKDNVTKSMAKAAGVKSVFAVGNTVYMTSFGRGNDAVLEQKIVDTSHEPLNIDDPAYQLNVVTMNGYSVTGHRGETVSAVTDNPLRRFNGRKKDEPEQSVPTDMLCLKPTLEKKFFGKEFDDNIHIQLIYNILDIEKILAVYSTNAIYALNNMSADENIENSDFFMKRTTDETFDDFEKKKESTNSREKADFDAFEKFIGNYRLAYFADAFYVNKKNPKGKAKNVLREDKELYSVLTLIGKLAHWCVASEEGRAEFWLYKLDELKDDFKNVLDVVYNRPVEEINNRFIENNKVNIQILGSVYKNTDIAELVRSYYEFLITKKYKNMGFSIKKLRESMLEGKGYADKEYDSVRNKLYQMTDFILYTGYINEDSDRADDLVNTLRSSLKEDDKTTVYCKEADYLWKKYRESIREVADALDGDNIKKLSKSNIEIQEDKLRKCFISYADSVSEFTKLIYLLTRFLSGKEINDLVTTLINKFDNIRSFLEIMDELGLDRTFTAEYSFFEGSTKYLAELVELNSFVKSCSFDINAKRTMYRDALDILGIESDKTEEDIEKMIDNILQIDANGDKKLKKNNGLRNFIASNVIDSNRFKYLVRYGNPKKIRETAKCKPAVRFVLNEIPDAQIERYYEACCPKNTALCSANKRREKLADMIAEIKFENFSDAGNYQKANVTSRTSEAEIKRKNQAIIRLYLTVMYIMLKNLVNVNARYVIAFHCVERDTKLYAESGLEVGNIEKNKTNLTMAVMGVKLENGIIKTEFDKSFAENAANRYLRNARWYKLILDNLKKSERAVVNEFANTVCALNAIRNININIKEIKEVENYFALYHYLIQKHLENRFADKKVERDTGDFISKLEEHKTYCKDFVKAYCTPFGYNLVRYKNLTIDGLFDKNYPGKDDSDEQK", "experiment": "crRNA (strand 1, pre-loaded); Mg2+; 40 mM Tris-HCl pH 7.5, 150 mM NaCl, 6 mM MgCl2, 1 mM DTT, 0.1% Tween-20, 0.2 mg/ml BSA; 25 C; 10 min per concentration, then washed", "settings": "tags: His6-TwinStrep-SUMO cleaved; N-terminal SNAP kept (SNAP-Surface 488); label: 3' end held by stalled T7 RNA polymerase", "units": {"Kd": "nM"}}
{"binder": "target 1 MT 5'PFS UCA 3'PFS CAU (mixed) RNA 1: CACCCGUGCAAAAAUGCAGGGGUCUAAAACUGAGCGGAUAACCUCUCUAUGG RNA 2: GGGAAUGGAUCCACAUCUACGAAUUCUCACCAUAGAGAGGUUAUCCGCUCACAUAGAUCGGAAGAGCACACGU", "Kd": "14.7 ± 4.85"}
{"binder": "target 1 MT 5'PFS AGG 3'PFS AAA (mixed) RNA 1: CACCCGUGCAAAAAUGCAGGGGUCUAAAACUGAGCGGAUAACCUCUCUAUGG RNA 2: GGGAAUGGAUCCACAUCUACGAAUUCAGGCCAUAGAGAGGUUAUCCGCUCAAAAAGAUCGGAAGAGCACACGU", "Kd": "~50"}
{"binder": "target 1 MT 5'PFS AAC 3'PFS UCU (mixed) RNA 1: CACCCGUGCAAAAAUGCAGGGGUCUAAAACUGAGCGGAUAACCUCUCUAUGG RNA 2: GGGAAUGGAUCCACAUCUACGAAUUCAACCCAUAGAGAGGUUAUCCGCUCAUCUAGAUCGGAAGAGCACACGU", "Kd": "22.5 ± 6.5"}
{"binder": "target 1 MT 5'PFS UCA 3'PFS CAG (mixed) RNA 1: CACCCGUGCAAAAAUGCAGGGGUCUAAAACUGAGCGGAUAACCUCUCUAUGG RNA 2: GGGAAUGGAUCCACAUCUACGAAUUCUCACCAUAGAGAGGUUAUCCGCUCACAGAGAUCGGAAGAGCACACGU", "Kd": "~84"}
{"binder": "target 1 MT 5'PFS UCA 3'PFS CAC (mixed) RNA 1: CACCCGUGCAAAAAUGCAGGGGUCUAAAACUGAGCGGAUAACCUCUCUAUGG RNA 2: GGGAAUGGAUCCACAUCUACGAAUUCUCACCAUAGAGAGGUUAUCCGCUCACACAGAUCGGAAGAGCACACGU", "Kd": "11 ± 5.5"}
{"binder": "target 1 MT 5'PFS GAC 3'PFS AUU (mixed) RNA 1: CACCCGUGCAAAAAUGCAGGGGUCUAAAACUGAGCGGAUAACCUCUCUAUGG RNA 2: GGGAAUGGAUCCACAUCUACGAAUUCGACCCAUAGAGAGGUUAUCCGCUCAAUUAGAUCGGAAGAGCACACGU", "Kd": "21.4 ± 4.45"}
{"binder": "target 1 MT 5'PFS AAC 3'PFS UCC (mixed) RNA 1: CACCCGUGCAAAAAUGCAGGGGUCUAAAACUGAGCGGAUAACCUCUCUAUGG RNA 2: GGGAAUGGAUCCACAUCUACGAAUUCAACCCAUAGAGAGGUUAUCCGCUCAUCCAGAUCGGAAGAGCACACGU", "Kd": "~13.5"}
{"binder": "target 1 MT 5'PFS AGG 3'PFS AAU (mixed) RNA 1: CACCCGUGCAAAAAUGCAGGGGUCUAAAACUGAGCGGAUAACCUCUCUAUGG RNA 2: GGGAAUGGAUCCACAUCUACGAAUUCAGGCCAUAGAGAGGUUAUCCGCUCAAAUAGAUCGGAAGAGCACACGU", "Kd": "~60"}
{"binder": "target 1 MT 5'PFS UGC 3'PFS UGU (mixed) RNA 1: CACCCGUGCAAAAAUGCAGGGGUCUAAAACUGAGCGGAUAACCUCUCUAUGG RNA 2: GGGAAUGGAUCCACAUCUACGAAUUCUGCCCAUAGAGAGGUUAUCCGCUCAUGUAGAUCGGAAGAGCACACGU", "Kd": "38 ± 13"}
{"binder": "target 1 MT 5'PFS AAA 3'PFS AAG (mixed) RNA 1: CACCCGUGCAAAAAUGCAGGGGUCUAAAACUGAGCGGAUAACCUCUCUAUGG RNA 2: GGGAAUGGAUCCACAUCUACGAAUUCAAACCAUAGAGAGGUUAUCCGCUCAAAGAGAUCGGAAGAGCACACGU", "Kd": "25.5 ± 6.5"}
{"binder": "target 1 A1G,A16U (mixed) RNA 1: CACCCGUGCAAAAAUGCAGGGGUCUAAAACUGAGCGGAUAACCUCUCUAUGG RNA 2: GGGAAUGGAUCCACAUCUACGAAUUCGUACCAUAGUGAGGUUAUCCGCUCGCCGAGAUCGGAAGAGCACACGU", "Kd": "45 ± 11"}
{"binder": "target 1 MT 5'PFS AAG 3'PFS ACU (mixed) RNA 1: CACCCGUGCAAAAAUGCAGGGGUCUAAAACUGAGCGGAUAACCUCUCUAUGG RNA 2: GGGAAUGGAUCCACAUCUACGAAUUCAAGCCAUAGAGAGGUUAUCCGCUCAACUAGAUCGGAAGAGCACACGU", "Kd": "16.5 ± 6"}
{"binder": "target 1 MT 5'PFS AAA 3'PFS AAA (mixed) RNA 1: CACCCGUGCAAAAAUGCAGGGGUCUAAAACUGAGCGGAUAACCUCUCUAUGG RNA 2: GGGAAUGGAUCCACAUCUACGAAUUCAAACCAUAGAGAGGUUAUCCGCUCAAAAAGAUCGGAAGAGCACACGU", "Kd": "33.5 ± 14.5"}
{"binder": "target 1 MT 5'PFS AAA 3'PFS AAC (mixed) RNA 1: CACCCGUGCAAAAAUGCAGGGGUCUAAAACUGAGCGGAUAACCUCUCUAUGG RNA 2: GGGAAUGGAUCCACAUCUACGAAUUCAAACCAUAGAGAGGUUAUCCGCUCAAACAGAUCGGAAGAGCACACGU", "Kd": "30 ± 12"}
{"binder": "target 1 MT 5'PFS AUG 3'PFS UCU (mixed) RNA 1: CACCCGUGCAAAAAUGCAGGGGUCUAAAACUGAGCGGAUAACCUCUCUAUGG RNA 2: GGGAAUGGAUCCACAUCUACGAAUUCAUGCCAUAGAGAGGUUAUCCGCUCAUCUAGAUCGGAAGAGCACACGU", "Kd": "10.6 ± 1.75"}
{"binder": "target 1 MT 5'PFS AAG 3'PFS ACA (mixed) RNA 1: CACCCGUGCAAAAAUGCAGGGGUCUAAAACUGAGCGGAUAACCUCUCUAUGG RNA 2: GGGAAUGGAUCCACAUCUACGAAUUCAAGCCAUAGAGAGGUUAUCCGCUCAACAAGAUCGGAAGAGCACACGU", "Kd": "23.5 ± 10"}
{"binder": "target 1 MT 5'PFS AAG 3'PFS ACC (mixed) RNA 1: CACCCGUGCAAAAAUGCAGGGGUCUAAAACUGAGCGGAUAACCUCUCUAUGG RNA 2: GGGAAUGGAUCCACAUCUACGAAUUCAAGCCAUAGAGAGGUUAUCCGCUCAACCAGAUCGGAAGAGCACACGU", "Kd": "~47.5"}
{"binder": "target 1 MT 5'PFS AAG 3'PFS ACG (mixed) RNA 1: CACCCGUGCAAAAAUGCAGGGGUCUAAAACUGAGCGGAUAACCUCUCUAUGG RNA 2: GGGAAUGGAUCCACAUCUACGAAUUCAAGCCAUAGAGAGGUUAUCCGCUCAACGAGAUCGGAAGAGCACACGU", "Kd": "15.5 ± 4"}
{"binder": "target 1 MT 5'PFS AUG 3'PFS UCC (mixed) RNA 1: CACCCGUGCAAAAAUGCAGGGGUCUAAAACUGAGCGGAUAACCUCUCUAUGG RNA 2: GGGAAUGGAUCCACAUCUACGAAUUCAUGCCAUAGAGAGGUUAUCCGCUCAUCCAGAUCGGAAGAGCACACGU", "Kd": "20 ± 8.5"}
{"binder": "target 1 MT 5'PFS CCG 3'PFS CGG (mixed) RNA 1: CACCCGUGCAAAAAUGCAGGGGUCUAAAACUGAGCGGAUAACCUCUCUAUGG RNA 2: GGGAAUGGAUCCACAUCUACGAAUUCCCGCCAUAGAGAGGUUAUCCGCUCACGGAGAUCGGAAGAGCACACGU", "Kd": "19 ± 5.5"}
{"binder": "target 1 MT 5'PFS GUU 3'PFS UAG (mixed) RNA 1: CACCCGUGCAAAAAUGCAGGGGUCUAAAACUGAGCGGAUAACCUCUCUAUGG RNA 2: GGGAAUGGAUCCACAUCUACGAAUUCGUUCCAUAGAGAGGUUAUCCGCUCAUAGAGAUCGGAAGAGCACACGU", "Kd": "17.4 ± 2.25"}
{"binder": "target 1 insC 3' of 20,insC 3' of 15 (mixed) RNA 1: CACCCGUGCAAAAAUGCAGGGGUCUAAAACUGAGCGGAUAACCUCUCUAUGG RNA 2: GGGAAUGGAUCCACAUCUACGAAUUCGUACCACUAGAGCAGGUUAUCCGCUCACCGAGAUCGGAAGAGCACACGU", "Kd": "10.1 ± 0.6"}
{"binder": "target 1 MT 5'PFS GUU 3'PFS UAA (mixed) RNA 1: CACCCGUGCAAAAAUGCAGGGGUCUAAAACUGAGCGGAUAACCUCUCUAUGG RNA 2: GGGAAUGGAUCCACAUCUACGAAUUCGUUCCAUAGAGAGGUUAUCCGCUCAUAAAGAUCGGAAGAGCACACGU", "Kd": "20.9 ± 3.75"}
{"binder": "target 1 MT 5'PFS GAA 3'PFS UCU (mixed) RNA 1: CACCCGUGCAAAAAUGCAGGGGUCUAAAACUGAGCGGAUAACCUCUCUAUGG RNA 2: GGGAAUGGAUCCACAUCUACGAAUUCGAACCAUAGAGAGGUUAUCCGCUCAUCUAGAUCGGAAGAGCACACGU", "Kd": "25 ± 5"}
{"binder": "target 1 MT 5'PFS GUU 3'PFS UAC (mixed) RNA 1: CACCCGUGCAAAAAUGCAGGGGUCUAAAACUGAGCGGAUAACCUCUCUAUGG RNA 2: GGGAAUGGAUCCACAUCUACGAAUUCGUUCCAUAGAGAGGUUAUCCGCUCAUACAGAUCGGAAGAGCACACGU", "Kd": "14.3 ± 2.8"}
{"binder": "target 1 MT 5'PFS ACU 3'PFS UCU (mixed) RNA 1: CACCCGUGCAAAAAUGCAGGGGUCUAAAACUGAGCGGAUAACCUCUCUAUGG RNA 2: GGGAAUGGAUCCACAUCUACGAAUUCACUCCAUAGAGAGGUUAUCCGCUCAUCUAGAUCGGAAGAGCACACGU", "Kd": "~52"}
{"binder": "target 1 MT 5'PFS GCG 3'PFS UCU (mixed) RNA 1: CACCCGUGCAAAAAUGCAGGGGUCUAAAACUGAGCGGAUAACCUCUCUAUGG RNA 2: GGGAAUGGAUCCACAUCUACGAAUUCGCGCCAUAGAGAGGUUAUCCGCUCAUCUAGAUCGGAAGAGCACACGU", "Kd": "13 ± 2.45"}
{"binder": "target 1 MT 5'PFS GAA 3'PFS UCA (mixed) RNA 1: CACCCGUGCAAAAAUGCAGGGGUCUAAAACUGAGCGGAUAACCUCUCUAUGG RNA 2: GGGAAUGGAUCCACAUCUACGAAUUCGAACCAUAGAGAGGUUAUCCGCUCAUCAAGAUCGGAAGAGCACACGU", "Kd": "29 ± 8"}
